Measured values published in publication PMC3458577 (Nucleic Acids Research, 2012).

Target: Recombinant human WRN protein (wild type) (human, UniProt Q14191 1-1432)
Test: co-IP

Chain of Recombinant human WRN protein (wild type) (Q14191 whole entry): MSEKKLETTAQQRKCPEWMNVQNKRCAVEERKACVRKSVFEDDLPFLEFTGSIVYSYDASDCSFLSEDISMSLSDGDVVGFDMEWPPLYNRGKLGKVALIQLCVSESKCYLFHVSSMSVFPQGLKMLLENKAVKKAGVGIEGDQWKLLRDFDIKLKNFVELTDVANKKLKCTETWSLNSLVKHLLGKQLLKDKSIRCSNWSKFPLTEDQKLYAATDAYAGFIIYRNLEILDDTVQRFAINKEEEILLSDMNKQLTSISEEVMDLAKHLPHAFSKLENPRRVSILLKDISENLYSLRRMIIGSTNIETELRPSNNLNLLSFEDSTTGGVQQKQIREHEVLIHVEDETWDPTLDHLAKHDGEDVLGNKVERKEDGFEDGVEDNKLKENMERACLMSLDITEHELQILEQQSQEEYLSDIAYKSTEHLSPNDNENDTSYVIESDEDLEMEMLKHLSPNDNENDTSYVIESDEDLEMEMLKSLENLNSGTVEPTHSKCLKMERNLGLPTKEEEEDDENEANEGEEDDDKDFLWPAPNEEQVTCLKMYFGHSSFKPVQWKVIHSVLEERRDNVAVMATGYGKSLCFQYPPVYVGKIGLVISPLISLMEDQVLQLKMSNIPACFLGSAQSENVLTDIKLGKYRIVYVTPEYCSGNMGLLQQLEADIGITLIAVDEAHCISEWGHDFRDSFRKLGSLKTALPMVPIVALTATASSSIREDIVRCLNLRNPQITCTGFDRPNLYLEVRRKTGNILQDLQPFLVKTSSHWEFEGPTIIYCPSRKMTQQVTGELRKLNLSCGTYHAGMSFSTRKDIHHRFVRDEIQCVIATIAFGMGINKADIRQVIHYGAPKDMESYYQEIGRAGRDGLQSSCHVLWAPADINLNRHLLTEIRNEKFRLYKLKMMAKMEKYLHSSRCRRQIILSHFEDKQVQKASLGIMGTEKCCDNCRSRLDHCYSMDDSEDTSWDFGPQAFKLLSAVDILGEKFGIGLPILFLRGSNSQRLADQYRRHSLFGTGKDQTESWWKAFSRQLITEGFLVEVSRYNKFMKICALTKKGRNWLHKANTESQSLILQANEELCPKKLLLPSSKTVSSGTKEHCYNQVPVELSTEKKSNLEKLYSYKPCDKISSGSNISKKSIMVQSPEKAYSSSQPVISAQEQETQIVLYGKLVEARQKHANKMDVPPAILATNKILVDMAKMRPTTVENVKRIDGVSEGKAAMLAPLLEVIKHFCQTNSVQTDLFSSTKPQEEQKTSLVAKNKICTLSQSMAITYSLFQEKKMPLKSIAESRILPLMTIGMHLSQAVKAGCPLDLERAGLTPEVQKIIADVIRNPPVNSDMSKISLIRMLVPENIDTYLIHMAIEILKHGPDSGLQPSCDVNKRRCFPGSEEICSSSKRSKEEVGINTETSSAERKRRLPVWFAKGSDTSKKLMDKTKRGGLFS

B1: Recombinant human Polλ protein (enzyme, UniProt Q9UGP5 1-575, looked up)
chain: MDPRGILKAFPKRQKIHADASSKVLAKIPRREEGEEAEEWLSSLRAHVVRTGIGRARAELFEKQIVQHGGQLCPAQGPGVTHIVVDEGMDYERALRLLRLPQLPPGAQLVKSAWLSLCLQERRLVDVAGFSIFIPSRYLDHPQPSKAEQDASIPPGTHEALLQTALSPPPPPTRPVSPPQKAKEAPNTQAQPISDDEASDGEETQVSAADLEALISGHYPTSLEGDCEPSPAPAVLDKWVCAQPSSQKATNHNLHITEKLEVLAKAYSVQGDKWRALGYAKAINALKSFHKPVTSYQEACSIPGIGKRMAEKIIEILESGHLRKLDHISESVPVLELFSNIWGAGTKTAQMWYQQGFRSLEDIRSQASLTTQQAIGLKHYSDFLERMPREEATEIEQTVQKAAQAFNSGLLCVACGSYRRGKATCGDVDVLITHPDGRSHRGIFSRLLDSLRQEGFLTDDLVSQEENGQQQKYLGVCRLPGPGRRHRRLDIIVVPYSEFACALLYFTGSAHFNRSMRALAKTKGMSLSEHALSTAVVRNTHGCKVGPGRVLPTPTEKDVFRLLGLPYREPAERDW
- binding result: binds

B2: (His)6-tagged Polλ244–575 (domain or fragment, human, UniProt Q9UGP5 244-575, looked up)
chain: PSSQKATNHNLHITEKLEVLAKAYSVQGDKWRALGYAKAINALKSFHKPVTSYQEACSIPGIGKRMAEKIIEILESGHLRKLDHISESVPVLELFSNIWGAGTKTAQMWYQQGFRSLEDIRSQASLTTQQAIGLKHYSDFLERMPREEATEIEQTVQKAAQAFNSGLLCVACGSYRRGKATCGDVDVLITHPDGRSHRGIFSRLLDSLRQEGFLTDDLVSQEENGQQQKYLGVCRLPGPGRRHRRLDIIVVPYSEFACALLYFTGSAHFNRSMRALAKTKGMSLSEHALSTAVVRNTHGCKVGPGRVLPTPTEKDVFRLLGLPYREPAERDW
- binding result: binds
